These results are taken from patent US20200317806A1 (Hoffmann-La Roche, published 2020).

For the experiment, the target named is T1, murine EpCAM recombinant ectodomain (ECD), C-terminally His-Avi tagged (mouse).
T1 construct: also called mu EpCAM; EpCAM ECD
T1 chain: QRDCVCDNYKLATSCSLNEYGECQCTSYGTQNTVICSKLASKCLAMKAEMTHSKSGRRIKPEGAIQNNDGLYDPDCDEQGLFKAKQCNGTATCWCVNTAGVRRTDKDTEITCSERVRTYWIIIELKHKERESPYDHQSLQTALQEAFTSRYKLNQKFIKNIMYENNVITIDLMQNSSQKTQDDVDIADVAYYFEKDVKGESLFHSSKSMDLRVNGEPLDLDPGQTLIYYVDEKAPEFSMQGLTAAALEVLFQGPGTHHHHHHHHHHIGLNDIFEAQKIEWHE
In words: SPR (Biacore), antibody captured by anti-mouse IgG, EpCAM ECD as analyte, 37 C. The text has this:
This system is well established for the study of molecule interactions. It allows a continuous real-time monitoring of ligand/analyte bindings and thus the determination of association rate constants (ka), dissociation rate constants (kd), and equilibrium constants (KD) in various assay settings. SPR-technology is based on the measurement of the refractive index close to the surface of a gold coated biosensor chip. Changes in the refractive index indicate mass changes on the surface caused by the interaction of immobilized ligand with analyte injected in solution. If molecules bind to immobilized ligand on the surface the mass increases, in case of dissociation the mass decreases. For capturing, a goat anti-mouse IgG antibody was immobilized on the surface of a CM5 biosensorchip using amine-coupling chemistry according to the manufacturer's instructions. Flow cells were activated with a 1:1 mixture of 0.1 M N-hydroxysuccinimide and 0.4 M 1-ethyl-3-(3-dimethylaminopropyl)-carbodiimide hydrochloride at a flow rate of 5 μl/min at 25° C. Anti-mouse IgG antibody was injected in 10 mM sodium acetate, pH 4.5 at 10 μg/mL. A reference control flow cell was treated in the same way but with vehicle buffers only instead of the capturing antibody. Surfaces were blocked with an injection of 1 M ethanolamine/HCl pH 8.5. […] All interactions were performed at 37° C., using PBS-T as running buffer. The analytes were injected in a series of threefold increasing concentrations (EGFR ECD 4.12-1000 nM and EpCAM ECD 0.91-2000 nM in PBS-T+0.1% BSA) with a flow rate of 50 μl/min, 180 sec association, 1200 sec dissociation. The capture antibody was regenerated after each cycle with 10 mM glycine, pH 2.0 at a flow rate of 30 μl/min for 60 sec. Signals were detected at a rate of one signal per second.

B1: G8.8 (mouse EpCAM-specific antibody) (antibody, mouse IgG2a, kappa, V domains shown)
VH: EVQLAESGGGLVQPGRSMKLSCAASGFTFSNFPMAWVRQAPTKGLEWVATISTSGGSTYYRDSVKGRFTISRDNAKSTLYLQMNSLRSEDTATYYCTRTLYILRVFYFDYWGQGVMVTVSS
VL: DIQMTQSPASLSASLGETVSIECLASEGISNDLAWYQQKSGKSPQLLIYATSRLQDGVPSRFSGSGSGTRYSLKISGMQPEDEADYFCQQSYKYPWTFGGGTKLELKR
notes: Full heavy and light chains; also called EpCAM G8.8; anti-EpCAM mono-specific antibody
In the case of B1, the Kd came to 61 nM, the koff was found to be 0.013 s⁻¹ and the kon worked out at 220000 M⁻¹ s⁻¹.
